Publication PMC5384396

Columns and labels:
[1] = molecular target: hGITR on hGITR-transfected Jurkat cells (human) (UniProt Q9Y5U5)
[2] = molecular target: hGITR on hGITR-transfected Jurkat cells (human) (UniProt Q9Y5U5); remark: listed apart in the source
[3] = molecular target: histidine-tagged recombinant FcγRIIIa (158V) (human); experiment: SPR

Chain of hGITR on hGITR-transfected Jurkat cells (human) (Q9Y5U5 26-241): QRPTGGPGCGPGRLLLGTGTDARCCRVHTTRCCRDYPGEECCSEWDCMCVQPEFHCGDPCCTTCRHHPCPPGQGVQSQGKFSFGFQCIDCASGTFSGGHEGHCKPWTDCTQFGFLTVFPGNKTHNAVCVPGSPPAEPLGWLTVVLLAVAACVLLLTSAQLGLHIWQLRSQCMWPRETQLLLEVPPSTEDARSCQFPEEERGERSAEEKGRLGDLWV

## hGITRL FP with the human matrilin 1 trimerization domain (from UniProt Q9UNG2 49-177) (Fc fusion)
[1]
  NFκB-luciferase reporter in hGITR-transfected Jurkat cells, agonism EC50: 0.92 nM

## IgG4 Fc-containing GITRL FP (from UniProt Q9UNG2 49-177) (Fc fusion)
[2]
  Jurkat-based NFκB reporter gene assay, EC50, comparison of Fc isotypes (Fig. S5): 0.3 nM

## IgG1 isotype control antibody
[3]
  Kd: 175 nM
